19 sequences from the DeepSol protein solubility set can be followed below.

The nature of this series: soluble on expression in E. coli; label from the status in PepcDB or PDB records.
As to “MGSDKIHHHHHHMSLSHNRHKKLIEMVQTDGEVRIRDLMVHFNVSEETARRDIKQLEQDGLVVRVHGGAVATQQPKLLTISSRAISELAEKNVIAEIALGLLKPGQNLFFGGGSTVLALARRISMLPEMRIVTNMVDTAIAASEGRRHRVVLLGGDFNGDYRVVTGFAALRTLREQQIDIAFIGVNAVHPTLGVFDHEQGGQELAATLAEQARKITVLADHSKFGRSARYRTLPHSAIATIITDQQPEPHVLTAIEGAGADVLYPPQNPS”, the “soluble on expression in E. coli” value was “not soluble”. The result for “MNISYIPEHIEQLTIMNVPEYYKINDNHAFIVRSKAETDFWLKTHYGFEVMNGHVFYNEMMTDFQAEVQLRMNPNSKFDQAGLFVMISENCWLKTSLEYIPEGPSHLGAVVTNNGYSDWSTQDYPTEAAKQQLRFRIIRKRGDYTIYVKKRHQWEQIRIAHLMEDIGNEPIKIGFYTCSPSKNKGFETEFLHFTIEELLEHHHHHH” reads “soluble”; that for “MAHHHHHHMGVGLSTVRHAGTAILVPTVSAASTAVLPLSSEERVAALPGTTTPPAAAAAPAPPTAEHTSNPRQRLTDTPAAHAAVSLPHAAPKPHRRFLPYPEEASALATPPPAAVLTAAPVVVEAAVKRHRKGSRVTKPLHPAQASLFTWAEGGQRNATGDAIIAGDHLRRRCCPDAGVVANRSMDCDEDATLVVRSPDEGRRSGTSLQSEGGLYGEKGQRQFAASGQWSPSPASPEAEEVAATVCASVNATAVENAPSGPAAPLLSSAFTAYRPVARSASPGPALGQYEGLPLTSVQQVLESKHKVYRICLTGGPCAGKSTMLSAIQAKIPQRTGFRVMCVPEAATLLVTGGMQWDGDLTVPQQLGLLRTQLALEDQFYALAVASHVPTVIVSDRGTMDGRAFCTDAQFQEILRGVGSTIDVLRDRYDAVIHMVTAADGAEEFYNLDNPARYEDLDGARASDLRLQRMYVGHPMFRLLDNSTTFEDKIERGLQVVSQVVHKEQCAPALPTYYLVRRCPAELPVASATYTTYTTVLGNSQISDIRLLVKREMADGSTMHFFKSVRDAPSTVPSSRAPPRATSHASSGASFRSSVNAPTVSTASPTQQRTRAPNASAAASTRACASTATAPALRW”, “not soluble”; that for “MKFICPLFVVNNMEISRNFYEKVLNQKVQYDFGENVSFESGFAIHLKPHFSELTGINRNDIIQKSNNSELYFEEEDLDSFLKKLKEMNSIEYVHELKEQPWGQRVIRFYDPDMHIIEVGEPMESVVKRLLSEGLSVEETSKRTLMPEEFVRQFLLEHHHHHH”, “soluble”. With “MSNAPLMPKATAVWLLDNTALTFDQVADFTKMHVLEVKAIADGDAAQGIKGMDPISTGQLTRDEIEKGEGDPDYRLKLAESKVVLPQAAKKKGPRYTPVSRRHERPSAILWLVRNHPELKDAQIMRLVGTTKTTIASVRDRTHWNAATLTPMDPVTLGLCSQLDLDFEVQRAAKEKPIDQQYGGATLLPASETTRKEAEFEAATSGKSQEDLDVDAVFAKLKTIGGKKHDDEDEDGGFLEHHHHHH” the entry was “soluble”; with “MGSDKIHHHHHHMKKLIDYLKANKITEVECVISDMTGIARGKIAPVDKFIDEKGMRLPESVLLQTVTGDYVDDDLYDSLLDKADIDFVCVPDENAVFMLPWTVEATAQVIHDTFDKMGNPIELSPRNLLKKVLKLYEDKGWKPVIAPEMEFYLTHRNSDPDMPLIPPVGRSGRKESGRQSFSIDAANEYDPLFEDMYDWCEAQGLDIDTLIHEEGTAQMEINFSHGDALSLADQVFVFKRTLREAALKHDVCATFMAKPVTDEPGSAMHIHQSVVDIKTGKNIFTNEDGTKSAKFLCYIGGLQKYIPELLPLMAPNVNSFRRFLPGTSAPVNLEWGDENRTCGLRIPESSPQNRRIENRIAGADANSYLAIAATLLCGYMGMVEDVKPSTPVQGRANENRQGISLPLTLEEALAVMSESSAVREYLGDTFTSGYIAVKQADLENFRRVISSWEREFLLLTV”, “not soluble”; with “GPGSMSLLNTTLQTLVVRLRDMSGNVTQQKLHNRVFDAYEAKSLVFEAISPEQQAVMQQFGTIPSQHPAGQPVLLDGWADLLTVHREDNLYQLLPRRAKNNASYSTMRAICCSAGSPFTMDHRVDPIDYKFVFRAADMEVRNKFNATNQDKIPPTIWFDGILSAPNDSGLVSCHNSLSPAHINNLAGTYQFLKEWSNEPPEGDRHRQLKEMYSNLLSKRTHLFIGSSSVPGREILNYARSKNVFVYAKRGMHYVFHA”, “not soluble”. On to “MGSDKIHHHHHHMITSKDNLTLIFVHACGVGNWMWYKQKDYFSNFSCMFIELPEHGDNYNIQPFSVKSAIKMIDKTVRSASGEVVLIGHEMGARLILNYLAEYTNDKVKKIVLSSTMIKTVKEGLFHKILPAKIIEKEFEKKNKNLQNIDFIKKTLDYYGVEEEYKDYYLNDMKRYKPRQLIKIIQEGLLKKLPLNLFIDNDIPALILVGEKETNANRLSAKLLSEYFSNSELIIVDNSTDNHIRTNSMVFNDRVKNFILT”, for which the “soluble on expression in E. coli” value is given as “not soluble”. With “MGILNKILTAFRGGATEVGQSIVDANSTRIFEQEIRDAEKHLTNAKRELTDVMAKEMQASREVDRLKRSIAEHEGYVTQALDKGNEALAIEVAEKIAQLEQELAEQQTANDSFSAHALRLKDLVKKTERQLSDYQRQLSMVKTTESVQKATATITDSFASSNSKLLNAKDSLERIKARQQQFDDRLKAAETLAEEGSDKSLQAKLAEAGIGEQKSNANAVLERIKARKSLEHHHHHH” the entry was “not soluble”; with “MSLNKTKDIAASPLCFVSPYPQLAKAAEALVAQLDYAVTIHQTTLNRILDELPLLESRGHQVLISRGGCAEILKKHSKLPVVEIKMSGYDILDALIPFKGQKGTVGIVGFSSVIKGCARVAEQLNINYKIFTLQGNDKETISCLKRQLASTPLDCIVGDTVCQDYFSPLGSQFRLLDSSPASITEALEEARSLYLAFRSQLLERHHLQLILDQFDKAVITLDDTGALLHYNKYASQLFKINASGEIYDASFLKQVLHQERHTLREGKTVSAKVVDTPQGAMVVNLYPVFAARQLSRVVLTMQTVSSLQGAEHHVRRQELSRRGLSAREGHHHHHH”, “soluble”; with “MSNDETVEKVTQQVSELKSTDVKEQVVTPWDVEGGVDEQGRAQNIDYDKLIKQFGTKPVNEETLKRFKQVTGREPHHFLRKGLFFSERDFTKILDLYEQGKPFFLYTGRGPSSDSMHLGHMIPFVFTKWLQEVFDVPLVIELTDDEKFLFKHKLTINDVKNFARENAKDIIAVGFDPKNTFIFSDLQYMGGAFYETVVRVSRQITGSTAKAVFGFNDSDCIGKFHFASIQIATAFPSSFPNVLGLPDKTPCLIPCAIDQDPYFRVCRDVADKLKYSKPALLHSRFFPALQGSTTKMSASDDTTAIFMTDTPKQIQKKINKYAFSGGQVSADLHRELGGNPDVDVAYQYLSFFKDDDVFLKECYDKYKSGELLSGEMKKLCIETLQEFVKAFQERRAQVDEETLDKFMVPHKLVWGEKERLVAPKPKTKQEKKHHHHHH”, “soluble”. Regarding “SLSSLDAVLSQDLIVADGPAVEVGDSLEVAYTGWLFQNHVLGQVFDSTANKDKLLRLKLGSGKVIKGWEDGMLGMKKGGKRLLIVPPACAVGSEGVIGWTQATDSILVFEVEVRRVKFAR”, the “soluble on expression in E. coli” value is “soluble”. The result for “MAHHHHHHMLTTYNIIWKKEEEDDSLNIEKRNRLFHEHVKEQKNDILSPSEFDLLVNDIEDLLEEQQINETEKLYKVSKSPNEKFNKKYKLSITDLSAQLWCEQQLELVLTTGKRRETEAMRLGIERHEILEKADHLIVNVEVNTREESLGYRLLNSITLLGQLFQTKKAREVWVFGIIRNYVLRGIIDELRIEYDNVTKKEYLIISDTKTRKEKKEPSLAQKRTSAIQVQTYCLILQQLKNGKADFKKLFEIYECDPLFEFTAVDLVKYKNLENLSIELNKLFMKLPKIKEEMEIVYEHEGKEFSRNLIPYFYHSTLYTINILLDYWDGKRSSDVVENSDKWKCKFCDFVKNCVRCPLDY” reads “not soluble”. With “MEQQIADLLDEQEELDLPQEQLEAAEGESEEESEEESSQGEKFPKTRAARIQRLVRDAAVSRNVKDLYGGECQACGLRLVGPDGRPYSEGAHIRPLGKPHCGPDVEPNVLCLCPNCHVRLDIGAIIIEDDWSIIVRAGELGGNVLSKLKRKKEHHVHLDYVRYHREWWLEKGDPSQELEHHHHHH” the entry was “soluble”; with “MPTETLSSVFVLVVLLPTSGLLPRTEAAFVASSSIEYCERSSNGEPFPCEKKMVVGLSVGSEQTIEAEEVVLLREAVDKTGDEKGKRVEFEPIRLVTTKSPVQYRYPIYYIRNFNAKPYEQRLRTSASSWCDDSSNPGSATCGVARDRRGDVIPYSQGFCCLCGACALSGICNPTSRSVGTCSVTGDTGMASCLRFSDLWYGGYTIGRGVVWYELQVKLSSGNNSTGGGSTGSKEFTMSLGPDKLTATSTEFGASARLIGDFAPPEMPLDLSGKMLFIPSEPRGHERVGAGYNEWIIVDTHLVSIRGTECNKVGVSYEGFATQGSRCDAYPGACLANQLEDYRDRDLEAETKGQQGKYMARFFAPFGFDPLANASAPAVAYQVTGTLSTMVTITISADKLNFVLSVSSGVVVGATVSGKVVHSYSRGSTITVTVLNTGDIEAQYTVVVGECTVNVQPMVAQTVYIPLQGSAQRRFTLIVQDSIEGEAKCNATLRNARGDVVDTRAISFGVKALKPSNGSQGGSTFENGRYSEEAKGESQCQQCSWFNLLCFLRHRCWWQPLVYVLPSVTLLMLLRRFLESQSRSRPRPQLHPDEHELRNTGAISSCHLPRAPYVNTVH”, “not soluble”; with “MTKQTKYVQTVIDELATKGVEALDAMANFTQEQVDHIVHQAAIAALDKHMYLAKLAVDETGRGIYEDKAIKNMYASEYIWNSIKYDKPVGVIAEDKEQGLVSIAEPVGVICGVTPTTNPTSITIFKALIAL”, “not soluble”. With “MNILQFNVRLAEGGAAGVALDLHLRALQKGLTSHFVYGYGKGGKKSVSHHRYPQVIKQTPRGTAIANIALFRFLNRDLFGNLDNLYRTVIQTSGPLVLHFHVLHSYWLNLADIVTFCEKVKAQKPDVTLVWTLHDHWSVTGRCAFTDGCEGWKSGCQKCPTLSNYPPVRVDRAHQLIDGKRQRFRDMLRLGCRFISPSQHVAEAFNSVYGAGRCQIINNGIDLATEAILAQLSPVPLNPGKPRIAIVAHDLRYDGKTDQRLVHDMMALGEKIELHTFGKFSPFTGQNVVNHGFETDKRKLMSALNEMDALVFSSRVDNYPLILCEALSIGVPVIATHSEAAQEVLAKSGGQTFAATDVLRLAQRRKPEIAQAVFGATLDAFRMRSRVAYSGQQMLEEYVSFYQNLLEHHHHHH” the entry was “not soluble”; with “MIEIPSDLHKDLVPLVFLLGDWAGAGVHDFPGAEKCNFGQEVSFTHDGRDFLEYQSHTWVLDNDGNKVRPLESEHGFWRIDANRKVEVTMTRDDGVIEIWYGELADQKPQIDLVTDAVARTAASQPYTGGKRLYGYVKSDLMWVGEKQTPEVELRPYMSAHLKKVVTPEDVERWAKALPDDMPDDGIAFFKLEHHHHHH”, “not soluble”. Consider “SEKELRSTILFNAYKKEVFTTNTGYKSLQKRLRSNWKIQSLKDEITSEKLIGVKLWITAGPREKFTAAEFEVLKKYLDSGGDILVMLGEGGESRFDTNINFLLEEYGIMVNNDAVVRNVYYKYFHPKEALGSDGVLNREISRAAGKAVPGVIDEENSGNNAQALTFVYPFGATLSVMKPAVAVLSTGSVCFPLNRPILAFYHSKNQGFGKLAVLGSCHMFSDQYLDKEENSKIMDVVFQWLTTGDIHLNQIDAEDPEISDYTMVPDTATLSEQLRVCLQEGDENPRDFTTLFDLSIYQLDTTCLPKVIKAHEELNVKHEPLQLVQPQFEMPLPALQPAVFPPSFRELPPPPLELFDLDETFSSEKARLAQITNKCTDEDLEFYVMKCGDILGVTSKLPKDQQDAKHILEHIFFQVVEFKKLNQEAH”, for which the “soluble on expression in E. coli” value was “soluble”.
